According to paper PMC4002121, “Trimethylation of Histone H3 Lysine 36 by Human Methyltransferase PRDM9 Protein” (The Journal of Biological Chemistry, 2014):

Tests used:
Assay in all cases: purified protein, by the assay type
Conditions in all cases: other: apparent Km of the peptide, AdoMet saturating 448 μM, 1 nM PRDM9, 10 mM Tris-HCl pH 8.5, 0.01% Triton X-100, 10 mM DTT, 20 min, 23 °C, mean ± S.D., n = 3, NA = not active
[1] = substrate: CNCCCC[C@H](NC(=O)[C@@H](NC(=O)[C@H](CCCNC(=N)N)NC(=O)[C@H](C)N)[C@@H](C)O)C(=O)N[C@@H](CCC(N)=O)C(=O)N[C@H](C(=O)N[C@@H](C)C(=O)N[C@@H](CCCNC(=N)N)C(=O)N[C@@H](CCCCN)C(=O)N[C@@H](CO)C(=O)N[C@H](C(=O)NCC(=O)NCC(=O)N[C@@H](CCCCN)C(=O)N[C@@H](C)C(=O)N1CCC[C@H]1C(=O)N[C@@H](CCCNC(=N)N)C(=O)N[C@@H](CCCCN)C(=O)N[C@@H](CCC(N)=O)C(=O)N[C@@H](CC(C)C)C(=O)N[C@@H](C)C(=O)N[C@H](C(=O)N[C@@H](CCCCN)C(=O)N[C@@H](C)C(=O)N[C@@H](C)C(=O)O)[C@@H](C)O)[C@@H](C)O)[C@@H](C)O
Protocol: (§1) To avoid the binding capacity limitation of scintillation proximity assay plates, a membrane-based assay was used for all kinetic studies. […] Apparent Km values were determined for AdoMet in reactions with each peptide by varying the AdoMet concentration. The highest concentration of AdoMet was 448 μM (5 μM [^3H]AdoMet plus 443 μM cold AdoMet). Dilutions of AdoMet were then made with assay buffer. The peptide concentration was kept at 5 μM. The assay buffer was 10 mM Tris-HCl, pH 8.5, 0.01% Triton X-100, and 10 mM DTT in a final volume of 20 μl. The reactions were started by addition of 1 nM PRDM9. The reaction mixtures were incubated for 20 min at 23 °C and quenched by adding 20 μl of 7.5 M guanidinium hydrochloride. 10 μl of quenched reaction mixture was spotted onto streptavidin-coated membrane squares (SAM2® Biotin capture membrane, Promega). The membrane was washed three times in 2 M NaCl for 2 min each time, then in water three times for 30 s each. The membrane was dried at 50 °C for 1 h and then each spotted square was cut from the membrane and placed in a scintillation vial. The amount of methylated peptide was quantified by tracing the radioactivity (cpm) as counted by a TriCarb liquid scintillation counter (PerkinElmer Life Sciences).

[2] = substrate: CC(C)[C@H](NC(=O)CNC(=O)CNC(=O)[C@@H](NC(=O)[C@H](C)NC(=O)[C@@H]1CCCN1C(=O)[C@H](C)NC(=O)[C@H](CO)NC(=O)[C@H](CCCCN)NC(=O)[C@H](CCCNC(=N)N)NC(=O)[C@H](C)NC(=O)[C@H](C)NC(=O)[C@H](CCCCN)NC(=O)[C@@H](NC(=O)[C@H](C)N)[C@@H](C)O)[C@@H](C)O)C(=O)N[C@@H](CCCCN(C)C)C(=O)N[C@@H](CCCCN)C(=O)N1CCC[C@H]1C(=O)N[C@@H](Cc1c[nH]cn1)C(=O)N[C@@H](CCCNC(=N)N)C(=O)N[C@@H](Cc1ccc(O)cc1)C(=O)N[C@@H](CCCNC(=N)N)C(=O)N1CCC[C@H]1C(=O)NCC(=O)O
Protocol: as §1

[3] = substrate: CC(C)C[C@H](NC(=O)[C@H](CCC(N)=O)NC(=O)[C@H](CCCCN)NC(=O)[C@H](CCCNC(=N)N)NC(=O)[C@@H]1CCCN1C(=O)[C@H](C)NC(=O)[C@H](CCCCN)NC(=O)CNC(=O)CNC(=O)[C@@H](NC(=O)[C@H](CO)NC(=O)[C@H](CCCCN)NC(=O)[C@H](CCCNC(=N)N)NC(=O)[C@H](C)NC(=O)[C@@H](NC(=O)[C@H](CCC(N)=O)NC(=O)[C@H](CCCCN(C)C)NC(=O)[C@@H](NC(=O)[C@H](CCCNC(=N)N)NC(=O)[C@H](C)N)[C@@H](C)O)[C@@H](C)O)[C@@H](C)O)C(=O)N[C@@H](C)C(=O)N[C@H](C(=O)N[C@@H](CCCCN)C(=O)N[C@@H](C)C(=O)N[C@@H](C)C(=O)O)[C@@H](C)O
Protocol: as §1

[4] = substrate: CNCCCC[C@H](NC(=O)[C@@H](NC(=O)CNC(=O)CNC(=O)[C@@H](NC(=O)[C@H](C)NC(=O)[C@@H]1CCCN1C(=O)[C@H](C)NC(=O)[C@H](CO)NC(=O)[C@H](CCCCN)NC(=O)[C@H](CCCNC(=N)N)NC(=O)[C@H](C)NC(=O)[C@H](C)NC(=O)[C@H](CCCCN)NC(=O)[C@@H](NC(=O)[C@H](C)N)[C@@H](C)O)[C@@H](C)O)C(C)C)C(=O)N[C@@H](CCCCN)C(=O)N1CCC[C@H]1C(=O)N[C@@H](Cc1c[nH]cn1)C(=O)N[C@@H](CCCNC(=N)N)C(=O)N[C@@H](Cc1ccc(O)cc1)C(=O)N[C@@H](CCCNC(=N)N)C(=O)N1CCC[C@H]1C(=O)NCC(=O)O
Protocol: as §1

[5] = substrate: CC(C)[C@H](NC(=O)CNC(=O)CNC(=O)[C@@H](NC(=O)[C@H](C)NC(=O)[C@@H]1CCCN1C(=O)[C@H](C)NC(=O)[C@H](CO)NC(=O)[C@H](CCCCN)NC(=O)[C@H](CCCNC(=N)N)NC(=O)[C@H](C)NC(=O)[C@H](C)NC(=O)[C@H](CCCCN)NC(=O)[C@@H](NC(=O)[C@H](C)N)[C@@H](C)O)[C@@H](C)O)C(=O)N[C@@H](CCCCN)C(=O)N[C@@H](CCCCN)C(=O)N1CCC[C@H]1C(=O)N[C@@H](Cc1c[nH]cn1)C(=O)N[C@@H](CCCNC(=N)N)C(=O)N[C@@H](Cc1ccc(O)cc1)C(=O)N[C@@H](CCCNC(=N)N)C(=O)N1CCC[C@H]1C(=O)NCC(=O)O
Protocol: as §1

B1: PRDM9 (Homo sapiens) (protein)
chain: SEPQDDDYLYCEMCQNFFIDSCAAHGPPTFVKDSAVDKGHPNRSALSLPPGLRIGPSGIPQAGLGVWNEASDLPLGLHFGPYEGRITEDEEAANNGYSWLITKGRNCYEYVDGKDKSWANWMRYVNCARDDEEQNLVAFQYHRQIFYRTCRVIRPGCELLVWYGDEYGQELGIKWGSKWKKELMAGREPKP
[1]
  Km: 1 ± 0.2 µM
[2]
  Km: 2.5 ± 0.3 µM
[3]
  Km: 3 ± 1 µM
[4]
  Km: 2.4 ± 0.4 µM
[5]
  Km: 1.5 ± 0.2 µM
